From US20250361312A1 (INVOX PHARMA, published 2025)

Assays:
Experiment in all cases: SPR (Biacore T200), receptor on CM5 chip
mouse NGFR = target: T1, mouse NGFR (mouse, UniProt Q9Z0W1 32-254, limits assumed)
T1 construct: Amine-coupled to a CM5 chip
T1 sequence (looked up): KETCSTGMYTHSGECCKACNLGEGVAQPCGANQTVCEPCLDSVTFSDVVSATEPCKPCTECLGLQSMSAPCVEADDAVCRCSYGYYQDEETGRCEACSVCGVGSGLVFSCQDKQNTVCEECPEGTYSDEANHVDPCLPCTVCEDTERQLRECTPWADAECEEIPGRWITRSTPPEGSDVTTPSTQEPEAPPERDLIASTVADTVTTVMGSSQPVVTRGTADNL

mouse TNFRI = target: T2, mouse TNFRI (mouse, UniProt P25118 22-212, limits assumed)
T2 construct: Amine-coupled to a CM5 chip
T2 sequence (looked up): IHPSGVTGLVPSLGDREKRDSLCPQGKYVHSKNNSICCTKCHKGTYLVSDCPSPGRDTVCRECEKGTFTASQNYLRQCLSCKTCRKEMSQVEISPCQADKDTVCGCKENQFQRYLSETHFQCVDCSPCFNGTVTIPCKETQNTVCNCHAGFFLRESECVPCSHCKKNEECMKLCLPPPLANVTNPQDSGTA

mouse CD40 = target: T3, mouse CD40 (mouse, UniProt P27512 24-193, limits assumed)
T3 construct: Amine-coupled to a CM5 chip
T3 sequence (looked up): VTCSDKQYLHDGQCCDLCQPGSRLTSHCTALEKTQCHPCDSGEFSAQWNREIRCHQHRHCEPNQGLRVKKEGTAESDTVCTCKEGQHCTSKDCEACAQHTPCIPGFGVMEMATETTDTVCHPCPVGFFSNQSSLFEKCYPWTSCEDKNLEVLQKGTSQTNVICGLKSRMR

mouse CD137 = target: T4, mouse CD137 (mouse, UniProt P20334 24-187, limits assumed)
T4 construct: Amine-coupled to a CM5 chip; also called 4-1BB
T4 sequence (looked up): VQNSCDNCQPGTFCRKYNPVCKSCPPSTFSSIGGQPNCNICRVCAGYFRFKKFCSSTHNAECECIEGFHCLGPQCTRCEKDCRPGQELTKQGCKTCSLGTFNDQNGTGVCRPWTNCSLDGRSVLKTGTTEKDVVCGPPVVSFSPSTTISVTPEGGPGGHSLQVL

mouse TNFRII = target: T5, mouse TNFRII (mouse, UniProt P25119 23-258, limits assumed)
T5 construct: Amine-coupled to a CM5 chip
T5 sequence (looked up): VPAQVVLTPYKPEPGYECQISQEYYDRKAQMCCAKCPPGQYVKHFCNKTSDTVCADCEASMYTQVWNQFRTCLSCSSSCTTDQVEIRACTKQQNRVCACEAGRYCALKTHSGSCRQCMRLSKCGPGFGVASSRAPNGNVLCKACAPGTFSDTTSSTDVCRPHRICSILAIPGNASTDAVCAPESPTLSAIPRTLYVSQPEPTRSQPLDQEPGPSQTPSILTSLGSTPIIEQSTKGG

Measured: binding result

B1: FS20m-232-91AA/HEL D1.3 (bispecific antibody, human IgG1, kappa, L234A L235A, V domains shown)
VH: QVQLQESGPGLVRPSQTLSLTCTVSGSTFSGYGVNWVRQPPGRGLEWIGMIWGDGNTDYNSALKSRVTMLVDTSKNQFSLRLSSVTAADTAVYYCARERDYRLDYWGQGSLVTVSS
VL: DIQMTQSPASLSASVGETVTITCRASGNIHNYLAWYQQKQGKSPQLLVYNAKTLADGVPSRFSGSGSGTQYSLKINSLQPEDFGSYYCQHFWSTPRTFGGGTKLEIKR
notes: Human IgG1 with anti-HEL D1.3 Fab and LALA; also called FS20m-232-91 in mock (HEL D1.3 LALA) mAb^2 format; FS20m-232-91/HelD1.3 mock mAb^2 with LALA mutation
no binding (tested: 1 µM): all assays above
